The source of these data is patent US20230322922A1.

Assay [1] concerns the target human HER2 expressed on target cells (BT-474, SKOV3, MCF-7, human cardiomyocytes) (human) (UniProt P04626). Kind of assay: cell-based or functional assay.
Assay [2] has as its target cynomolgus monkey CD3 (cynomolgus monkey). The experiment in a line: surface plasmon resonance, equilibrium binding analysis. On the technique in general: SPR reads the build-up and loss of mass on a sensor chip optically.
Assay [3] deals with cynomolgus monkey HER2 (cynomolgus monkey). Described as above.
A further assay concerns the target human CD3 (human). The assay is described as above.
The next assay concerns the target human HER2 (human) (UniProt P04626). Described as above.

A word on the Kd: it is the concentration at which binding is half-saturated. In the case of AMX-818(PAT) (bispecific antibody), in assay [1], the Jurkat NFAT-Luciferase reporter T cell activation in the presence of BT-474 cells, EC50 was 0.07 nM; the T cell-mediated cytotoxicity against BT474 cells (PBMC 1:1, 48 h, CellTiter-Glo), EC50 is 0.0048 nM; the T cell-mediated cytotoxicity against SKOV3 cells (PBMC 1:1, 48 h, CellTiter-Glo), EC50 was found to be 0.0034 nM; the cytotoxicity against BT-474 tumor cells with PBMC effectors (1:1), IC50 was in the range of 0.005 to 0.011 nM. Besides, in assay [2], the Kd was 21.5 nM. The same substance registered a Kd in assay [3] of 2 nM. In the assay with human CD3 (human), this substance came in with a Kd of 26.3 nM.

In assay [1], AMX-818 (bispecific antibody) had a T cell-mediated cytotoxicity against BT474 cells (PBMC 1:1, 48 h, CellTiter-Glo), EC50 of 49.4 nM. This substance also came in with a T cell-mediated cytotoxicity against SKOV3 cells (PBMC 1:1, 48 h, CellTiter-Glo), EC50 in assay [1] of 44.5 nM. The Kd was found to be 140 nM in assay [2], 20.1 nM in assay [3], 160 nM in the assay with human CD3 (human) and 24.9 nM in the assay with human HER2 (human). The values for the fold reduction of affinity by masking, against AMX-818(PAT) (in assay [2]; in assay [3]; with human CD3 (human)) were 6 fold, 10 fold and 6 fold, respectively.
